# Data published in IntAct's records for PubMed 29892012.
# B1: Abl interactor 2 (Homo sapiens), Q9NYB9 (parent)
# chain: MAELQMLLEEEIPGGRRALFDSYTNLERVADYCENNYIQSADKQRALEETKAYTTQSLASVAYLINTLANNVLQMLDIQASQLRRMESSINHISQTVDIHKEKVARREIGILTTNKNTSRTHKIIAPANLERPVRYIRKPIDYTILDDIGHGVKWLLRFKVSTQNMKMGGLPRTTPPTQKPPSPPMSGKGTLGRHSPYRTLEPVRPPVVPNDYVPSPTRNMAPSQQSPVRTASVNQRNRTYSSSGSSGGSHPSSRSSSRENSGSGSVGVPIAVPTPSPPSVFPAPAGSAGTPPLPATSASAPAPLVPATVPSSTAPNAAAGGAPNLADGFTSPTPPVVSSTPPTGHPVQFYSMNRPASRHTPPTIGGSLPYRRPPSITSQTSLQNQMNGGPFYSQNPVSDTPPPPPPVEEPVFDESPPPPPPPEDYEEEEAAVVEYSDPYAEEDPPWAPRSYLEKVVAIYDYTKDKEDELSFQEGAIIYVIKKNDDGWYEGVMNGVTGLFPGNYVESIMHYSE
# partner: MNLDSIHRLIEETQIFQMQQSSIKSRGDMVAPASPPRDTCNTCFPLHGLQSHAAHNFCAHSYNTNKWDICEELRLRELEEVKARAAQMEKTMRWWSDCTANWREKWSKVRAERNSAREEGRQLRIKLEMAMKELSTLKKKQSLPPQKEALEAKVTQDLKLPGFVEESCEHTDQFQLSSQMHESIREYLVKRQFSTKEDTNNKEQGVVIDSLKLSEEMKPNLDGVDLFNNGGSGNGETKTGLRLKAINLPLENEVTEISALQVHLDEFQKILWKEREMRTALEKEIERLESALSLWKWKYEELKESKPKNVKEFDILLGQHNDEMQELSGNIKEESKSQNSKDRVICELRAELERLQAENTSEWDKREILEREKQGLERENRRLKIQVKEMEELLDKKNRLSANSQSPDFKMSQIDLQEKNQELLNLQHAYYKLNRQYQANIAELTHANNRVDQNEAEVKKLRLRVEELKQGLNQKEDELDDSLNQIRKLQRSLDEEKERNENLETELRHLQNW
# B2: Abl interactor 2 (Homo sapiens), Q9NYB9 (parent)
# chain: B1 chain
# partner: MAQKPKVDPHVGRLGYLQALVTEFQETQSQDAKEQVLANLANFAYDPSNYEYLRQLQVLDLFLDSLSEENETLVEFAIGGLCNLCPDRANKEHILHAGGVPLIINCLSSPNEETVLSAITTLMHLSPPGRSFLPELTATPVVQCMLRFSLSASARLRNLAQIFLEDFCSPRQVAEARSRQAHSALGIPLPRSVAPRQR
# B3: Acetylcholine receptor subunit gamma (Homo sapiens), P07510 (parent)
# chain: MHGGQGPLLLLLLLAVCLGAQGRNQEERLLADLMQNYDPNLRPAERDSDVVNVSLKLTLTNLISLNEREEALTTNVWIEMQWCDYRLRWDPRDYEGLWVLRVPSTMVWRPDIVLENNVDGVFEVALYCNVLVSPDGCIYWLPPAIFRSACSISVTYFPFDWQNCSLIFQSQTYSTNEIDLQLSQEDGQTIEWIFIDPEAFTENGEWAIQHRPAKMLLDPAAPAQEAGHQKVVFYLLIQRKPLFYVINIIAPCVLISSVAILIHFLPAKAGGQKCTVAINVLLAQTVFLFLVAKKVPETSQAVPLISKYLTFLLVVTILIVVNAVVVLNVSLRSPHTHSMARGVRKVFLRLLPQLLRMHVRPLAPAAVQDTQSRLQNGSSGWSITTGEEVALCLPRSELLFQQWQRQGLVAAALEKLEKGPELGLSQFCGSLKQAAPAIQACVEACNLIACARHQQSHFDNGNEEWFLVGRVLDRVCFLAMLSLFICGTAGIFLMAHYNRVPALPFPGDPRPYLPSPD
# B4: Abl interactor 2 (Homo sapiens), Q9NYB9 (parent)
# chain: B1 chain
# partner: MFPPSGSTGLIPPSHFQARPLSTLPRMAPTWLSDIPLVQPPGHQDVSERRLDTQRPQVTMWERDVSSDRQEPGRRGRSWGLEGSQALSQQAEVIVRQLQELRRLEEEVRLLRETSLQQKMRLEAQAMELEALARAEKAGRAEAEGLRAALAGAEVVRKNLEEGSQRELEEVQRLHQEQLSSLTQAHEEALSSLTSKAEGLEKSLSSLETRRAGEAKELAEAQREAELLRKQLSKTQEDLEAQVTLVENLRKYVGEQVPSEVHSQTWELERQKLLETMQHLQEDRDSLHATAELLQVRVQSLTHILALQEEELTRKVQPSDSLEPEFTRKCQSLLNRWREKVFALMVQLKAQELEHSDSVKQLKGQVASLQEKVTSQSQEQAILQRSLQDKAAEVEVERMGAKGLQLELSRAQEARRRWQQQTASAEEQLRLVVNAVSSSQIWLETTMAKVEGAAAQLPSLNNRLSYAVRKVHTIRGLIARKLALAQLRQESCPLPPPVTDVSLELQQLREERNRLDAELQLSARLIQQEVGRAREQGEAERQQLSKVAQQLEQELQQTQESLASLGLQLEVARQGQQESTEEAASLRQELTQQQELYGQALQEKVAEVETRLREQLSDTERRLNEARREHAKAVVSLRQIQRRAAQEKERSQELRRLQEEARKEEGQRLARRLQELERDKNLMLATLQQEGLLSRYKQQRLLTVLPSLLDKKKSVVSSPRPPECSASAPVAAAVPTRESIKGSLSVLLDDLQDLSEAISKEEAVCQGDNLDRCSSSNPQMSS
# Variants of: B1
# Conditions: with CCDC102B
row,Variant,effect of a mutation on the interaction
1,R373C,with no effect

# Variants of: B1
# Conditions: with CCDC102B
# Remark: another data set of the same source
row,Variant,effect of a mutation on the interaction
1,E202K,with no effect

# Variants of: B2
# Conditions: with armc7_human ARMC7, Q9H6L4
row,Variant,effect of a mutation on the interaction
1,E202K,with no effect

# Variants of: B3
# Conditions: with kr108_human KRTAP10-8, P60410
# Sequence of kr108_human KRTAP10-8, P60410 (P60410 whole entry): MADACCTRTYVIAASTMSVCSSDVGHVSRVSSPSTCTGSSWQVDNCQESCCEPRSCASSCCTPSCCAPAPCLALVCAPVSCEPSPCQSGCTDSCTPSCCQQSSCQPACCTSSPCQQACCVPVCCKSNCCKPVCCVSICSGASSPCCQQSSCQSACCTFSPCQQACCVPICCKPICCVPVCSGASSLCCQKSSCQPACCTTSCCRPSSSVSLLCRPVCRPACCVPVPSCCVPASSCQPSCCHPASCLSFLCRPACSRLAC
row,Variant,effect of a mutation on the interaction
1,MHGGQGPLLLLLLLAVCLGAQGRNQEERLLADLMQNYDPNLRPAERDSDVVNVSLKLTLTNLISLNEREEALTTNVWIEMQWCDYRLRWDPRDYEGLWVLRVPSTMVWRPDIVLENNVDGVFEVALYCNVLVSPDGCIYWLPPAIFRSACSISVTYFPFDWQNCSLIFQSQTYSTNEIDLQLSQEDGQTIEWIFIDPEAFTENGEWAIQHRPAKMLLDPAAPAQEAGHQKVVFYLLIQRKPLFYVINIIAPCVLISSVAILIHFLPAKAGGQKCTVAINVLLAQTVFLFLVAKKVPETSQAVPLISKYLTFLLVVTILIVVNAVVVLNVSLRSPHTHSMARGVRKVFLRLLPQLLRMHVRPLAPAAVQDTQSRLQNGSSGWSITTGEEVALCLPRSELLFQQWQRQGLVAAALEKLEKGPELGLSQFCGSLKQAAPAIQACVEACNLTACARHQQSHFDNGNEEWFLVGRVLDRVCFLAMLSLFICGTAGIFLMAHYNRVPALPFPGDPRPYLPSPD [I448T],with no effect

# Variants of: B3
# Conditions: with kr103_human KRTAP10-3, P60369
# Sequence of kr103_human KRTAP10-3, P60369 (P60369 whole entry): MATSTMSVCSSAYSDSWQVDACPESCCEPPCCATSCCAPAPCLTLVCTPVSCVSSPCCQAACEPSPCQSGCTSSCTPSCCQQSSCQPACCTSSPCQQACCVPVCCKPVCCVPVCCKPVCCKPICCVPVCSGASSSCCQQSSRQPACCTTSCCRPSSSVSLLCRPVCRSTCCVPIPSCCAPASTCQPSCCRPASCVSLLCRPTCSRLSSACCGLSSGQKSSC
row,Variant,effect of a mutation on the interaction
1,MHGGQGPLLLLLLLAVCLGAQGRNQEERLLADLMQNYDPNLRPAERDSDVVNVSLKLTLTNLISLNEREEALTTNVWIEMQWCDYRLRWDPRDYEGLWVLRVPSTMVWRPDIVLENNVDGVFEVALYCNVLVSPDGCIYWLPPAIFRSACSISVTYFPFDWQNCSLIFQSQTYSTNEIDLQLSQEDGQTIEWIFIDPEAFTENGEWAIQHRPAKMLLDPAAPAQEAGHQKVVFYLLIQRKPLFYVINIIAPCVLISSVAILIHFLPAKAGGQKCTVAINVLLAQTVFLFLVAKKVPETSQAVPLISKYLTFLLVVTILIVVNAVVVLNVSLRSPHTHSMARGVRKVFLRLLPQLLRMHVRPLAPAAVQDTQSRLQNGSSGWSITTGEEVALCLPRSELLFQQWQRQGLVAAALEKLEKGPELGLSQFCGSLKQAAPAIQACVEACNLTACARHQQSHFDNGNEEWFLVGRVLDRVCFLAMLSLFICGTAGIFLMAHYNRVPALPFPGDPRPYLPSPD [I448T],with no effect

# Variants of: B3
# Conditions: with k1h1_human KRT31, Q15323
# Sequence of k1h1_human KRT31, Q15323 (Q15323 whole entry): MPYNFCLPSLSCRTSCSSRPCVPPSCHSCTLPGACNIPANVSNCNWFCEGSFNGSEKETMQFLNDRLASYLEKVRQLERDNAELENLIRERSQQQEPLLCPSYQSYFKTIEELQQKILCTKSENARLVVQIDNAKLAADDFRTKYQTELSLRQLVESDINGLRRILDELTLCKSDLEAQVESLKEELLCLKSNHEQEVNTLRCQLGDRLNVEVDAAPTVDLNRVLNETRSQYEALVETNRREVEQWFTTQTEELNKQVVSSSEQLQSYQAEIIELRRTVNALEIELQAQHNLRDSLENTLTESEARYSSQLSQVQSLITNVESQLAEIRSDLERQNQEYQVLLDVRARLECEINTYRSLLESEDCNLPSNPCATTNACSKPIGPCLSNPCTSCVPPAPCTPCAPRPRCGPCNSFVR
row,Variant,effect of a mutation on the interaction
1,MHGGQGPLLLLLLLAVCLGAQGRNQEERLLADLMQNYDPNLRPAERDSDVVNVSLKLTLTNLISLNEREEALTTNVWIEMQWCDYRLRWDPRDYEGLWVLRVPSTMVWRPDIVLENNVDGVFEVALYCNVLVSPDGCIYWLPPAIFRSACSISVTYFPFDWQNCSLIFQSQTYSTNEIDLQLSQEDGQTIEWIFIDPEAFTENGEWAIQHRPAKMLLDPAAPAQEAGHQKVVFYLLIQRKPLFYVINIIAPCVLISSVAILIHFLPAKAGGQKCTVAINVLLAQTVFLFLVAKKVPETSQAVPLISKYLTFLLVVTILIVVNAVVVLNVSLRSPHTHSMARGVRKVFLRLLPQLLRMHVRPLAPAAVQDTQSRLQNGSSGWSITTGEEVALCLPRSELLFQQWQRQGLVAAALEKLEKGPELGLSQFCGSLKQAAPAIQACVEACNLTACARHQQSHFDNGNEEWFLVGRVLDRVCFLAMLSLFICGTAGIFLMAHYNRVPALPFPGDPRPYLPSPD [I448T],with no effect

# Variants of: B3
# Conditions: with nt2na_human NOTCH2NLA
row,Variant,effect of a mutation on the interaction
1,MHGGQGPLLLLLLLAVCLGAQGRNQEERLLADLMQNYDPNLRPAERDSDVVNVSLKLTLTNLISLNEREEALTTNVWIEMQWCDYRLRWDPRDYEGLWVLRVPSTMVWRPDIVLENNVDGVFEVALYCNVLVSPDGCIYWLPPAIFRSACSISVTYFPFDWQNCSLIFQSQTYSTNEIDLQLSQEDGQTIEWIFIDPEAFTENGEWAIQHRPAKMLLDPAAPAQEAGHQKVVFYLLIQRKPLFYVINIIAPCVLISSVAILIHFLPAKAGGQKCTVAINVLLAQTVFLFLVAKKVPETSQAVPLISKYLTFLLVVTILIVVNAVVVLNVSLRSPHTHSMARGVRKVFLRLLPQLLRMHVRPLAPAAVQDTQSRLQNGSSGWSITTGEEVALCLPRSELLFQQWQRQGLVAAALEKLEKGPELGLSQFCGSLKQAAPAIQACVEACNLTACARHQQSHFDNGNEEWFLVGRVLDRVCFLAMLSLFICGTAGIFLMAHYNRVPALPFPGDPRPYLPSPD [I448T],with no effect

# Variants of: B4
# Conditions: with cchcr_human CCHCR1, Q8TD31
row,Variant,effect of a mutation on the interaction
1,R373C,with no effect
